Source: patent publication US20240366624A1, “METHODS AND COMPOSITIONS FOR TREATING THROMBOTIC DISEASE” (Washington University, priority 2023, published 2024)

Molecular target: T1, ERO1α (Homo sapiens, UniProt Q96HE7)
T1 sequence (Q96HE7 24-468): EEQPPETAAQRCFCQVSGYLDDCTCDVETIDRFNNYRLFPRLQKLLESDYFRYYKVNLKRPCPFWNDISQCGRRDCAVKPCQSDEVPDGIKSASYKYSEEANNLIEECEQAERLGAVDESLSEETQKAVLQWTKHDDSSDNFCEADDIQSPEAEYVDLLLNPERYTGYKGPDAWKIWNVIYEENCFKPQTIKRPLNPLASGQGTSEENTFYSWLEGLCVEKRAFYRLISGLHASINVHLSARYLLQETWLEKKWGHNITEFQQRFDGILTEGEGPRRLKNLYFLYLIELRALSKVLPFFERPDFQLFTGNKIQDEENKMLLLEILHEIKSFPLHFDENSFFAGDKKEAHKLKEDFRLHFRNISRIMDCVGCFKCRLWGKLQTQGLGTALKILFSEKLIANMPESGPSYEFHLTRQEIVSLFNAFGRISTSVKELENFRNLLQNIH
Assay: Bio-layer interferometry, STIM1 on biotinylated ERO1α biosensor
Type: binding
Description: FIG. 11(A-Q) is an exemplary embodiment of ERO1α (endoplasmic reticulum oxidoreductase 1α) regulating the function of Ca^2+ signaling molecules, STIM1 (stromal interaction molecule 1) and SERCA2 (sarco/endoplasmic reticulum Ca^2+ ATPase 2), and enhancing cytosolic Ca^2+ levels during platelet activation in accordance with the present disclosure. FIG. 11A: Mass spectrometric analysis was performed to identify proteins interacting with ERO1α in resting and thrombin-activated human platelets. […] FIG. 11B and FIG. 11C: Immunoprecipitation of ERO1α with lysates of resting and thrombin (Thr)-activated human platelets, followed by immunoblotting and densitometry. FIG. 11(D-F): Ca^2+ release and influx of wild type (WT) and Ero1α-null platelets were assessed in response to 0.1 U/mL thrombin, 2 μM A23187, or 20 μM thapsigargin (TG), followed by the addition of 1 mM CaCl2. The Ca^2+ signal was quantified by the area under the curve (AUC). […] After incubation with a different concentration of wtSTIM1 and mutant STIM1 (mSTIM1), the specific interaction between ERO1α and STIM1 was measured by subtracting the nonspecific binding. The dissociation constant, KD, was calculated from the Kon and Koff values. […] Please note that the unmodified peptide was not detected. […] P values determined by unpaired Student t test. […]

- KD, ERO1α binding to STIM1: minimal and not concentration dependent
B1: mutant STIM1: STIM1 with Cys49 and Cys56 mutated to Ser (protein)
chain: LSHSHSEKATGTSSGANSEESTAAEFSRIDKPLSHSEDEKLSFEAVRNIHKLMDDDANGDVDVEESDEFLREDLNYHDPTVKHSTFHGEDKLISVEDLWKAWKSSEVYNWTVDEVVQWLITYVELPQYEETFRKLQLSGHAMPRLAVTNTTMTGTVLKMTDRSHRQKLQLKALDTVLFGPPLLTRHNHLKD
